Results as given in publication PMC9952706.

Target: T1, AdpA (His-tagged) (Streptomyces coelicolor M145) (UniProt Q9L062)
T1 sequence: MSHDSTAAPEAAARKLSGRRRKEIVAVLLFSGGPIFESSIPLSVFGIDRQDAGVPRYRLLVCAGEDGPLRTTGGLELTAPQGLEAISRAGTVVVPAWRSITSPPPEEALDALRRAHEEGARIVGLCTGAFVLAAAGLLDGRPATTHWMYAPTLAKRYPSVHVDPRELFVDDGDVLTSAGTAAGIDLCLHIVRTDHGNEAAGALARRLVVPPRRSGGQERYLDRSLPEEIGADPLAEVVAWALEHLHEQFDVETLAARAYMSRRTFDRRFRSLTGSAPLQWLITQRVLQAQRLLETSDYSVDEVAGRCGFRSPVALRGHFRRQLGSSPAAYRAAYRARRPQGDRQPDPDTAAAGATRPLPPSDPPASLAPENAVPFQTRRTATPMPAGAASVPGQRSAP
Experiment: EMSA
Details: EMSA: 20 mM Tris-HCl pH 8.0, 2 mM EDTA, 20 mM KCl, 0.5 mM DTT, 4% Ficoll-400, 2 µg poly(dI-dC), room temperature, 25 min; 20 nM probe

| Sequence | binding |
| --- | --- |
| GCGGCAGATCAGGACCCTCCAGGACTTCGGGTTCGACCTGGAGGAGACCCGCCCCTTCGTGGAGTGCCTGCGCGCCGGGCACCCGGAGGGCGACTCCTGTCCGGCGTCCCTCGTGGTCTACCGGCGCAAGCTGGCCGAGCTGGACACGCTGATCGAGCAGCTCACGTCGGTGCGCGCGCAGGTCGCCGCACAGCTGACGCGGGCCGAGGCGGCGGCTCCGGGGGGTCCGGAGCCCAAGTGCGAACTGGGAGGACACGGATGAAGACCAGCGGGGTGCCCGAGGTGACGGACGCGGACTT (double strand) [trxA2 (sco5438) promoter probe] | binds |
| TCATGGGCGCGCGTCCTGCGCACGCCGCCGGTTCGGTACTCCGAAGGTGCAGCGTCCGCGGAGCCGCGGAGATTCCCGCCCACCGTCGCATTTCGGCCACGCGAGGGCCCGGCGAGTGATGAGGATCTCGCCGCACACGGGCACCAAGGCTGGTA (double strand) [trxA5 (sco1084) promoter probe] | binds |
